For assay [1], the target named is HLA-A2/WT β2m/NY-ESO-1(Y1V9) complex. The assay can be described thus: native MS; nano-ESI-MS, 10 μM protein, 100 mM ammonium acetate, pH 7, declustering potential 50 V, complexes with peptide I.
Assay [2] concerns the target HLA-A2/D76N β2m/NY-ESO-1(Y1V9) complex. The assay is described as above.

For “HLA-A2/WT β2m/NY-ESO-1(Y1V9) complex (from UniProt P61769 21-119) (peptide-MHC)”, the stoichiometry N in assay [1] is 2.

“HLA-A2/D76N β2m/NY-ESO-1(Y1V9) complex (from UniProt P61769 21-119) (peptide-MHC)”: in assay [2], the stoichiometry N worked out at 2.

For orientation: stoichiometry N means the number of molecules, sites or subunits per partner or assembly.

The values above are taken from publication PMC3916536.
